Laboratory results reported in paper PMC8199443.

Target: OpuABC-SS, OpuABC subunit of the ABC transporter OpuA with a C-terminal TwinStrepII-tag (Lactococcus lactis)
Test: SEC; affinity-purified OpuA reconstituted in MSP1D1 nanodiscs (DOPE/DOPC/DOPG; OpuA/MSP1D1/lipid 1:20:2000 or 1:20:1000), Superdex 200 Increase 10/300 GL, 50 mM KPi pH 7.0, 200 mM KCl; peak fraction on SDS-PAGE

“OpuABC-SS, OpuABC subunit of the ABC transporter OpuA with a C-terminal TwinStrepII-tag (natural protein)” was tested, and the stoichiometry N was 2.
